The test system of this series is MS2 coat protein. The series can be described thus: apparent KD of MS2 coat protein; designed switch direction (-1 OFF switch, 1 ON switch): -1; higher = weaker reporter binding. A digest of the protocol:
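RNA switches sharing common flanks were transcribed by stalled E. coli RNA polymerase on Illumina chips. A doubling series of SNAP-549-labelled MS2 coat protein, from 0.7 or 1.5 nM to 3 µM, was applied in Tris-HCl pH 7.5 buffer with KCl, MgCl2, BSA, DTT, tRNA and Tween-20. Each step lasted 0.8–1.5 h at the bottom of the series and 10–20 min at the top. Normalised cluster fluorescence was curve-fitted, giving apparent KD as the per-design median over clusters.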

The mark [1] stands for this setting: Eterna round: R95, input ligand: microRNA oligo, concentration not stated.
The mark [2] stands for this setting: Eterna round: R95, input ligand: FMN 200 uM.
[3] abbreviates: Eterna round: R95, input ligand: none.
The mark [4] stands for this setting: input ligand: microRNA oligo, concentration not stated.

Regarding “AUUUAUGUUGAGGAUAUGCUAAAAUGUAUAGUUGCAGAAGGCGACACAUGAGGAUCACCCAUGUUCAUGGAAUU [LRO-Ex6-01] (puzzle: Exclusion 6)”, under setting [1], the “apparent KD of MS2 coat protein” value is 0.0313 µM.

In the case of “AAGUACCGUCACGAAAGUGAUGGUACAACAAGCAAAUGUACAUGAGGAUCACCCAUGUCCUCGAUUGCUCGUCUUAU [Sensor 3 - 61] (puzzle: Sensor v3, turn-off variant 2)”, the “apparent KD of MS2 coat protein” value runs as follows: under setting [2], 0.0772 µM; under setting [1], 0.114 µM; under setting [3], 0.0936 µM.

For the sequence “UGUGUGAGACAGGAUAUGCUGGAUGUGAGGCGGGUAGAAGGGUCUACAUGAGGAUCACCCAUGUGGCCGGUUGG [Ex6 #70] (Eterna round: R97, puzzle: Exclusion 6)”, the “apparent KD of MS2 coat protein” value runs as follows: (input ligand: FMN 200 uM) 0.0194 µM; (input ligand: none) 0.0173 µM.

Regarding “AAGAAACAUGAGGAUCACCCAUGUGAGGAUAUGUAAAAGAAAAUAAAAUAAAUAAUAAACAGAAGGCACAAAGG [Mat - Mod of Hog D18] (puzzle: Exclusion 1)”, the “apparent KD of MS2 coat protein” value reads like this: under setting [2], 0.0582 µM; under setting [1], 0.0336 µM; under setting [3], 0.0409 µM.

Regarding “AUUAUAUAGACAGGAUAUUGAUUAUUAUUUUAACAUGAGGAUCACCCAUGUAGCCUUAUGUAUAACAAGAAGGGUCAUUUAUUA [Title] (Eterna round: R96, puzzle: Exclusion NG 2)”, the “apparent KD of MS2 coat protein” value under setting [4] stood at 0.124 µM.

As to “CCGCAUAUGGAGGAUAUCGUAUCGGAAACGAUACGAGAAGGCUAAACAUGAGGAUCACCCAUGUUCCUUAACGG [Fiskers Ex 6 - 29] (puzzle: Exclusion 6)”, the “apparent KD of MS2 coat protein” value under setting [1] turned out to be 0.0152 µM.

Regarding “GCACGGUAAUUCCAUAAAACCACAUGAGGAUCACCCAUGUCUCAGGAUAUGGUCUGGAUUACAGGCCAGAAGGGAGAGCCGUGC [Eli exng3 - 060] (Eterna round: R96, puzzle: Exclusion NG 3)”, the “apparent KD of MS2 coat protein” value reads like this: (input ligand: FMN 200 uM) 0.0104 µM; under setting [4], 0.00888 µM; (input ligand: none) 0.0133 µM.

Turning to “UAAUUAAGUGUGAGGAUAUGCUGGUCCUUGGAUCAGCAGAAGGCACAUGAGGAUCACCCAUGUAAUAUAUUUAU [JL bmx4 3.11] (puzzle: Brourd's mod of Exclusion 4)”, the “apparent KD of MS2 coat protein” value under setting [1] was found to be 0.0819 µM.

In the case of “UUUCCCUGGCAAGGAUAUCCUGUGCGGUUCCGGCUCGUGUCUGUUACAUGAGGAUCACCCAUGUGGGAGAAGGUGCCUGUGGUU [Design 90] (Eterna round: R96, puzzle: Exclusion NG 2)”, the “apparent KD of MS2 coat protein” value by setting is: (input ligand: FMN 200 uM) 0.39 µM; under setting [4], 0.173 µM; (input ligand: none) 0.22 µM.

Take “GAGUAGGGAGGAUAUGCAGAAUGACUCGUAAGUAAGAUAGGACAUGAGGAUCACCCAUGUAGAAGGCUCUGAUG [jun14#1] (Eterna round: R97, puzzle: Exclusion 2)”: the “apparent KD of MS2 coat protein” value reads like this: (input ligand: FMN 200 uM) 0.0463 µM; (input ligand: none) 0.042 µM.

As to “UAAGAUUACCGAGGAUAUGCUGGUUUCUCUUAAGCAGAAGGCGGACUCAACAUGAGGAUCACCCAUGUAAGAAGGGUAUUAGAU [Ex NG1 #10] (Eterna round: R96, puzzle: Exclusion NG 1)”, the “apparent KD of MS2 coat protein” value runs as follows: (input ligand: FMN 200 uM) 0.0859 µM; under setting [4], 0.0786 µM; (input ligand: none) 0.116 µM.

For the sequence “GCCAGAGCAGGAUAUUCAAUAAUUCACAUGAGGAUCACCCAUGUCCAGCGAAAGCUAGGAGGAGAAGGGCUCUGGC [Fiskers Ex 5 - 4] (puzzle: Exclusion 5)”, the “apparent KD of MS2 coat protein” value reads like this: under setting [2], 0.0152 µM; under setting [1], 0.0172 µM; under setting [3], 0.0178 µM.

As to “GAUUACAACGAAGACAAGCACAUGAGGAUCACCCAUGUGUAAAAUCGAGUGGGCCCACUCGUACCUCAACACCGUCU [JR_Sensorv2_tov_Sub304] (Eterna round: R96, puzzle: Sensor v2, turn-off variant)”, the “apparent KD of MS2 coat protein” value was 0.0189 µM (input ligand: FMN 200 uM), 0.0158 µM under setting [4] and 0.0198 µM (input ligand: none).

These data come from the supplement of paper PMC9170038.
